“Also recorded” adds a separate entry of the source.
What was measured:
[1] = test system: γ-secretase (PS1, PS2) knockout HEK 293T cells; assay: PS1 KO, PS2 KO and PS1/2 dKO HEK 293T cell lines: α-CTF and Aβ40; format: cell-based, human
Method: • a) A plasmid expressing the target protein in mammalian cells was constructed, and the protein expression promoter is CAG. • b) The target protein was expressed in HEK 293T cell line. Cells were subcultured one day before transfection, and transfection was performed when the degree of cell adhesion reached 70%-80%. The transfection reagent was lipofectamine2000 (ThermoFisher). • c) 4-6 hours post transfection, the medium were replaced with fresh cell culture medium. • d) 36-48 hours post transfection, the cells were lysed (10% 1M tris-HCl (pH=6.8), 4% SDS, 20% glycerol, 0.01% bromophenol blue), and the protein samples were collected and used for Western blot or stored in a −80° C. freezer. • e) Polyacrylamide gel electrophoresis. Before protein loading, the protein was boiled at 98° C. for 10 min, and then centrifuged at 12000 rpm for 10 min. Electrophoresis: 80V for the upper stacking gel; 120V for the lower separating gel. • f) Protein transfer. The filter paper was soaked in the electrophoresis solution before use, and the PVDF membrane was put in methanol for 10s to activate, and the gel after electrophoresis was taken out from the electrophoresis tank, put in the order of filter paper—PVD membrane—gel-filter paper from bottom to top, and they were put into the transfer instrument, with transferring in constant current at 0.1 A for 70 min. • g) Blocking and antibody incubation: the transferred PVDF membrane was placed in 5% BSA/TBST blocking solution, and blocked on a shaker at room temperature for 1 hour. The primary antibody was used to incubate at 4° C. overnight on a shaker (12-16 h); 1×TBST was used to wash three times, once every 10 minutes; the secondary antibody was used to incubate, shaked at room temperature for 1-2 h; 1×TBST was used to wash three times, once every 10 minutes. • h) Imaging by development: development was performed with ECL chemiluminescence hypersensitive chromogenic reagent.
The experiment was performed according to the standard procedure in the ELISA analysis kit of Invitrogen Company. • a) The target protein was expressed in HEK 293T cell line. Cells were subcultured one day before transfection, and transfection was performed when the degree of cell adhesion reached 70%-80%. The transfection reagent was lipofectamine2000 (ThermoFisher). • b) 4-6 hours post transfection, medium were replaced with fresh cell culture medium. • c) 36-48 hours post transfection, the cell culture medium was collected, and then the ELISA process was performed or the cell culture medium was frozen in a −80° C. refrigerator. • d) 50 μl of standard samples and experimental samples were added to each well of the 96-well plate. • e) 50 μl of human-derived Aβ40 or Aβ42 or mouse-derived Aβ40 detection antibody was added to each well of the 96-well plate. • f) The above samples were shaken gently and placed at room temperature for 3 hours. • g) The liquid in the well were removed, and the plate was washed 4 times with 1× wash buffer. • h) 100 μl of the buffer containing 1× anti-Rabbit IgG HRP was added. • i) The plate was shaken gently and placed at room temperature for […]. • j) The liquid in the well were removed, and the well was washed 4 times with 1× wash buffer. • k) 100 μl of Stabilized Chromogen was added to each well, and the plate was placed in the dark for 30 minutes at room temperature. • l) 100 μl of Stop Solution was added to each well. • m) The absorbance at 450 nm was measured with a microplate reader. 2.4 qRT-PCR […]

[2] = test system: primary cultured mouse hippocampal or cortical neurons; assay: Endogenous Aβ40 in primary cultured mouse cortical or hippocampal neurons (lentivirus, ELISA); format: cell-based; settings: for endogenously produced Aβ40: lentivirus
Method: Primary cultured neurons were derived from the cortex or hippocampus of 16-day embryonic mice. The mouse cortex or hippocampus was obtained under a stereoscope, and was digested at 37° C. for 10 minutes with 20 U/ml papain (Worthington Company). After digestion, the neurons that exist in single-cell form were seeded with 100,000 neurons per well (24-well plate); the neurons were cultured in the neuron culture medium (Neurobasal medium; ThermoFisher Company) containing 2% B27 (ThermoFisher Company) and 1% penicillin/streptomycin; the fresh culture medium was changed once a week.
The experiment was performed according to the standard procedure in the ELISA analysis kit of Invitrogen Company. • a) The target protein was expressed in HEK 293T cell line. Cells were subcultured one day before transfection, and transfection was performed when the degree of cell adhesion reached 70%-80%. The transfection reagent was lipofectamine2000 (ThermoFisher). • b) 4-6 hours post transfection, medium were replaced with fresh cell culture medium. • c) 36-48 hours post transfection, the cell culture medium was collected, and then the ELISA process was performed or the cell culture medium was frozen in a −80° C. refrigerator. • d) 50 μl of standard samples and experimental samples were added to each well of the 96-well plate. • e) 50 μl of human-derived Aβ40 or Aβ42 or mouse-derived Aβ40 detection antibody was added to each well of the 96-well plate. • f) The above samples were shaken gently and placed at room temperature for 3 hours. • g) The liquid in the well were removed, and the plate was washed 4 times with 1× wash buffer. • h) 100 μl of the buffer containing 1× anti-Rabbit IgG HRP was added. • i) The plate was shaken gently and placed at room temperature for […]. • j) The liquid in the well were removed, and the well was washed 4 times with 1× wash buffer. • k) 100 μl of Stabilized Chromogen was added to each well, and the plate was placed in the dark for 30 minutes at room temperature. • l) 100 μl of Stop Solution was added to each well. • m) The absorbance at 450 nm was measured with a microplate reader. 2.4 qRT-PCR
• a) Construction of lentivirus expression plasmids, lentivirus-GFP and lentivirus-ApoE CT, which can be specifically expressed in neurons. • b) The lentivirus vectors were cotransfected with coat protein vectors (PSPAX2 and PMD2G) in HEK 293T cell line. Cells were subcultured one day before transfection, and transfection was performed when the degree of cell adhesion reached 70%-80%. […]
48 hours after transfection of HEK 293T cells and N2A cells, or 4.5 days after lentivirus infection of neurons, media and lysates were collected. Aβ40 and Aβ42 in the culture medium and cell lysates were detected by an Aβ ELISA kit as indicated in the protocol. […]

B1: ApoE CT: C-terminal fragment of ApoE, positions 216-299 of SEQ ID NO: 12; SEQ ID NO: 33 (protein)
chain: ARMEEMGSRTRDRLDEVKEQVAEVRAKLEEQAQQIRLQAEAFQARLKSWFEPLVEDMQRQWAGLVEKVQAAVGTSAAPVPSDNH
Aβ40 in PS1/2 dKO cells supplemented with PS2 ([1]; ELISA): can reduce Aβ40; also recorded: significantly reduced Aβ40
α-CTF in PS1/2 dKO cells ([1]; PS1 and PS2 double knockout HEK 293T cells): does not further increase α-CTF; also recorded: did not further increase α-CTF levels
α-CTF in PS1 KO cells ([1]; PS1 single knockout HEK 293T cells): still able to increase α-CTF
α-CTF in PS2 KO cells ([1]; PS2 single knockout HEK 293T cells): still able to increase α-CTF
α-CTF in PS1/2 dKO cells supplemented with PS1 or PS2 ([1]; rescued expression of PS1 or PS2): can significantly increase α-CTF; also recorded: again significantly increased α-CTF
reduction in endogenous Aβ40 ([2]; mouse cortical and hippocampal neurons, lentiviral infection, vs GFP controls): 30%
endogenously produced Aβ40 ([2]; primary cultured mouse cortical neurons): about 73 % of the control group
endogenously produced Aβ40 ([2]; primary cultured mouse hippocampal neurons): about 71 % of the control group
endogenously produced Aβ40 ([2]; primary cultured mouse neurons, vs GFP control): can reduce the endogenous production of Aβ40

From US20250108100A1, “C-TERMINAL FRAGMENT OF APOLIPOPROTEIN E AND APPLICATION THEREOF IN INHIBITING y-SECRETASE ACTIVITY” (SYNPHATEC (SHANGHAI) BIOPHARMACEUTICAL TECHNOLOGY CO., LTD., priority 2022, published 2025)
